How the values were obtained:
[1] = molecular target: His-tagged CRABP1 R29A (Mus musculus); experiment: pull-down; purified His-CRABP1 (WT or mutant, 5 uM) held on Ni-NTA resin as bait; 250 ug pre-cleared lysate of HEK293T cells expressing GFP-CaMKII (DMSO or ionomycin 10 uM, 10 min) as prey; 50 mM Tris pH 8.0, 150 mM NaCl, 0.2% NP-40, 20% glycerol, 200 mM imidazole, overnight at 4°C; Western blot with anti-GFP and anti-His; densitometry gives the CCI (n = 5)
[2] = molecular target: His-tagged CRABP1 H94A (Mus musculus); experiment: as above
[3] = molecular target: His-tagged CRABP1 T96A (Mus musculus); experiment: as above
[4] = molecular target: T1, 15N-labeled wild-type cellular retinoic acid-binding protein 1 (CRABP1) (Mus musculus, UniProt P62965 2-137, 15N-labeled); experiment: NMR titration; 15N-1H HSQC of 15N-labeled CRABP1 (19 uM) without and with CaMK-R peptide (200 uM); 30 mM d11-Tris-d3-acetate pH 6.2, 75 mM Na2SO4, 10 uM ZnCl2, 1 mM TCEP, 30°C; details: both partners purified
T1 construct: also called 15N-labeled CRABP1; 15N WT CRABP1; source: expressed and purified as described in Park et al. (2019); SEC
T1 sequence (P62965 2-137): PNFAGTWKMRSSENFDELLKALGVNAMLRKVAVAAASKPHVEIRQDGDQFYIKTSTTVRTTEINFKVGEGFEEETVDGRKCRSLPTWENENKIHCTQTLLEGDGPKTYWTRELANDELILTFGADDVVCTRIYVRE

**Q.** “GFP-CaMKII beta, inactive (from vehicle-treated HEK293T cells) (from UniProt P08413 1-542) (cell lysate)” was tested. Which CRABP1–CaMKII Complex Index (CCI; ratio of inactive to active CaMKII pulled down) [1] did it give?
**A.** 1

**Q.** Which CRABP1–CaMKII Complex Index (CCI; ratio of inactive to active CaMKII pulled down) [2] does the source give for “GFP-CaMKII beta, inactive (from vehicle-treated HEK293T cells) (from UniProt P08413 1-542) (enzyme)” here?
**A.** 1

**Q.** And the CRABP1–CaMKII Complex Index (CCI; ratio of inactive to active CaMKII pulled down) [3]?
**A.** 1

B1: CaMK-R peptide (29-residue peptide, residues 281–309 of the regulatory segment of CaMKII alpha) (peptide, UniProt P11798 281-309, looked up)
peptide: MHRQETVDCLKKFNARRKLKGAILTTMLA
notes: also called CAMKII-R; CaMKII peptide; source: synthetic peptide (University of Minnesota Peptide Synthesis Services)
**Q.** Does B1 bind [4]?
**A.** binds

Reference: publication PMC10562560, “Molecular basis for cellular retinoic acid-binding protein 1 in modulating CaMKII activation” (Frontiers in Molecular Biosciences, 2023)
